Reference: the supplement of paper PMC10567573

B1: ZNF449 (parent)
chain: QLTGHQRIHSGEEPHKCPECGKRF

Variants of: B1
Assay: protein stability index of a GFP-peptide fusion (GPS, HEK-293T) (PSI 1-6); higher = more stable
Conditions: c terminus: a fixed tail appended
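Also: lentivirally expressed fusions sorted by FACS into six bins by GFP to DsRed ratio, PSI derived from sequencing read proportions per bin multiplied by bin number.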

Variant | protein stability index
QLTGHQRIHSGEEDHKCPECGKRF | 4.84
QLTGHQRIHSGEEMHKCPECGKRF | 4.05
QLTGHQRIHSGEEQHKCPECGKRF | 4.75
QLTGHQRIHSGEEEHKCPECGKRF | 4.09
QLTGHQRIHSGEEFHKCPECGKRF | 4.38
QLTGHQRIHSGEECHKCPECGKRF | 4.22
QLTGHQRIHSGEENHKCPECGKRF | 4.49
QLTGHQRIHSGEESHKCPECGKRF | 4.88
QLTGHQRIHSGEEGHKCPECGKRF | 4.5
QLTGHQRIHSGEEIHKCPECGKRF | 4.5
QLTGHQRIHSGEEWHKCPECGKRF | 4.5
QLTGHQRIHSGEELHKCPECGKRF | 3.7
QLTGHQRIHSGEEYHKCPECGKRF | 4.65
QLTGHQRIHSGEEHHKCPECGKRF | 3.88
QLTGHQRIHSGEEKHKCPECGKRF | 3.98
QLTGHQRIHSGEEVHKCPECGKRF | 4.19
QLTGHQRIHSGEEAHKCPECGKRF | 4.33
QLTGHQRIHSGEERHKCPECGKRF | 3.75
QLTGHQRIHSGEEPHDCPECGKRF | 4.82
QLTGHQRIHSGEEPHVCPECGKRF | 4.58
QLTGHQRIHSGEEPHSCPECGKRF | 5.11
QLTGHQRIHSGEEPHACPECGKRF | 4.36
QLTGHQRIHSGEEPHGCPECGKRF | 3.97
QLTGHQRIHSGEEPHRCPECGKRF | 3.41

Variant | protein stability index
QLTGHQRIHSGEEPHHCPECGKRF | 5
QLTGHQRIHSGEEPHFCPECGKRF | 3.48
QLTGHQRIHSGEEPHMCPECGKRF | 3.94
QLTGHQRIHSGEEPHCCPECGKRF | 3.84
QLTGHQRIHSGEEPHLCPECGKRF | 4.48
QLTGHQRIHSGEEPHECPECGKRF | 4.69
QLTGHQRIHSGEEPHICPECGKRF | 4.48
QLTGHQRIHSGEEPHNCPECGKRF | 4.54
QLTGHQRIHSGEEPHTCPECGKRF | 4.43
QLTGHQRIHSGEEPHWCPECGKRF | 4.14
QLTGHQRIHSGEEPHPCPECGKRF | 4.23
QLTGHQRIHSGEEPHYCPECGKRF | 3.61
QLTGHQRIHSGEEPHQCPECGKRF | 4.3
QLTGHQRIHSGEEPHKCLECGKRF | 3.92
QLTGHQRIHSGEEPHKCIECGKRF | 3.88
QLTGHQRIHSGEEPHKCDECGKRF | 5.02
QLTGHQRIHSGEEPHKCQECGKRF | 4.02
QLTGHQRIHSGEEPHKCYECGKRF | 3.64
QLTGHQRIHSGEEPHKCVECGKRF | 4.55
QLTGHQRIHSGEEPHKCKECGKRF | 4.15
QLTGHQRIHSGEEPHKCAECGKRF | 3.92
QLTGHQRIHSGEEPHKCHECGKRF | 3.61
QLTGHQRIHSGEEPHKCCECGKRF | 3.74
QLTGHQRIHSGEEPHKCSECGKRF | 4.46

Variant | protein stability index
QLTGHQRIHSGEEPHKCRECGKRF | 4.4
QLTGHQRIHSGEEPHKCGECGKRF | 4.21
QLTGHQRIHSGEEPHKCNECGKRF | 4.3
QLTGHQRIHSGEEPHKCMECGKRF | 4.14
QLTGHQRIHSGEEPHKCEECGKRF | 4.17
QLTGHQRIHSGEEPHKCFECGKRF | 3.41
QLTGHQRIHSGEEPHKCWECGKRF | 3.4
QLTGHQRIHSGEEPHKCTECGKRF | 3.98
QLTGHQRIHSGEEPHKGPECGKRF | 3.56
QLTGHQRIHSGEEPHKQPECGKRF | 4.38
QLTGHQRIHSGEEPHKEPECGKRF | 4.89
QLTGHQRIHSGEEPHKLPECGKRF | 4.58
QLTGHQRIHSGEEPHKSPECGKRF | 4.43
QLTGHQRIHSGEEPHKAPECGKRF | 4.4
QLTGHQRIHSGEEPHKWPECGKRF | 3.92
QLTGHQRIHSGEEPHKTPECGKRF | 3.98
QLTGHQRIHSGEEPHKVPECGKRF | 4.76
QLTGHQRIHSGEEPHKDPECGKRF | 5.48
QLTGHQRIHSGEEPHKIPECGKRF | 4.4
QLTGHQRIHSGEEPHKMPECGKRF | 4.72
QLTGHQRIHSGEEPHKFPECGKRF | 4.6
QLTGHQRIHSGEEPHKRPECGKRF | 4.36
QLTGHQRIHSGEEPHKHPECGKRF | 4.17
QLTGHQRIHSGEEPHKNPECGKRF | 4.3

Variant | protein stability index
QLTGHQRIHSGEEPHKPPECGKRF | 4.71
QLTGHQRIHSGEEPHKYPECGKRF | 4.26
QLTGHQRIHSGEEPHKKPECGKRF | 5.14
QLTGHQRIHSGEEPRKCPECGKRF | 3.76
QLTGHQRIHSGEEPMKCPECGKRF | 3.68
QLTGHQRIHSGEEPVKCPECGKRF | 2.18
QLTGHQRIHSGEEPYKCPECGKRF | 4.3
QLTGHQRIHSGEEPKKCPECGKRF | 3.66
QLTGHQRIHSGEEPPKCPECGKRF | 3.94
QLTGHQRIHSGEEPAKCPECGKRF | 4.68
QLTGHQRIHSGEEPFKCPECGKRF | 4.22
QLTGHQRIHSGEEPIKCPECGKRF | 4.8
QLTGHQRIHSGEEPNKCPECGKRF | 4.52
QLTGHQRIHSGEEPEKCPECGKRF | 4.28
QLTGHQRIHSGEEPCKCPECGKRF | 5.22
QLTGHQRIHSGEEPQKCPECGKRF | 4.31
QLTGHQRIHSGEEPSKCPECGKRF | 4.06
QLTGHQRIHSGEEPTKCPECGKRF | 4.52
QLTGHQRIHSGEEPLKCPECGKRF | 3.65
QLTGHQRIHSGEEPHKCPEQGKRF | 4.79
QLTGHQRIHSGEEPHKCPEDGKRF | 5.03
QLTGHQRIHSGEEPHKCPEEGKRF | 5.41
